Experimental findings from patent US20040018971A1 (published 2004) are described below.

B1: HER2/neu DR supermotif exemplary peptide ITDFGLARLLDIDET (position 861) (peptide)
peptide: ITDFGLARLLDIDET
notes: synthetic 15-mer; also called Her2/neu.861
B2: HER2/neu DR supermotif exemplary peptide PSTFKGTPTAENPEY (position 1234) (peptide)
peptide: PSTFKGTPTAENPEY
notes: synthetic 15-mer; also called Her2/neu.1234
B3: HER2/neu DR supermotif exemplary peptide LLVVVLGVVFGILIK (position 662) (peptide)
peptide: LLVVVLGVVFGILIK
notes: synthetic 15-mer; also called Her2/neu.662
B4: HER2/neu DR supermotif exemplary peptide KEILDEAYVMAGVGS (position 765) (peptide)
peptide: KEILDEAYVMAGVGS
notes: synthetic 15-mer; also called Her2/neu.765

In the first experiment the target is T1, HLA-DRB1*0101 (human).
T1 construct: also called DR1
Briefly: competition with 125I-labeled standard peptide, purified HLA-DR, gel filtration. (In general: Size exclusion chromatography separates by hydrodynamic size, large species first.)
Take B1: the relative binding ratio was 0.0048 ratio (standard IC50 / test IC50).

As to B2, the relative binding ratio is -0.0005 ratio (standard IC50 / test IC50).

As for B3, the relative binding ratio was -0.0008 ratio (standard IC50 / test IC50).

The next experiment deals with T2, HLA-DRB1*0401 (human).
T2 construct: also called DR4w4
Described as above.
On to B1, for which the relative binding ratio was -0.0032 ratio (standard IC50 / test IC50).

Turning to B4, the relative binding ratio is 0.0073 ratio (standard IC50 / test IC50).

Consider B2, for which the relative binding ratio is -0.0032 ratio (standard IC50 / test IC50).

Turning to B3, the relative binding ratio was -0.0025 ratio (standard IC50 / test IC50).

A further experiment addresses T3, HLA-DRB1*0701 (human).
T3 construct: also called DR7
Described as above.
In the case of B1, the relative binding ratio was -0.0011 ratio (standard IC50 / test IC50).

Take B4: the relative binding ratio was -0.0011 ratio (standard IC50 / test IC50).

For B2, the relative binding ratio was -0.0011 ratio (standard IC50 / test IC50).

For B3, the relative binding ratio is 0.0019 ratio (standard IC50 / test IC50).

For the next experiment, the target named is HLA-A*0203 (human). In words: competition with 125I-labelled probe peptide for purified HLA, gel filtration.
Turning to VLIQRNPQV [Her2/neu.153V9], the IC50 – broadly, the concentration at which inhibition is half-maximal – was 135 nM.

In the next experiment the target is HLA-A*0206 (human). Described as above.
The molecule VLIQRNPQV [Her2/neu.153V9] showed an IC50 of 385 nM.

In the next experiment the target is HLA-A*0202 (human). The experiment is described as above.
In turn, VLIQRNPQV [Her2/neu.153V9] showed a half-maximal inhibitory concentration (IC50) of 768 nM.

The target of a further experiment is T4, HLA-A*0201 (human).
T4 construct: also called HLA-A2.1
Described as above.
As for VLIQRNPQV [Her2/neu.153V9], the concentration for half-maximal inhibition (IC50) is 55 nM.

The target in a further experiment is T5, HLA-A*0301 (purified HLA class I molecule) (human).
T5 construct: also called A3
In words: inhibition of 125I probe peptide binding to purified HLA; ratio to standard peptide; minus sign not explained.
On to CSPMCKGSR (also called Her2/neu.195 (9-mer)) [HER2/neu peptide, position 195, 9 amino acids], for which the relative binding ratio was -0.0008 ratio (IC50 standard / IC50 test).

For GMEHLREVR (also called Her2/neu.346 (9-mer)) [HER2/neu peptide, position 346, 9 amino acids], the relative binding ratio is -0.0002 ratio (IC50 standard / IC50 test).

As for CAGGCARCK (also called Her2/neu.220 (9-mer)) [HER2/neu peptide, position 220, 9 amino acids], the relative binding ratio is -0.0002 ratio (IC50 standard / IC50 test).

DSECRPRFR (also called Her2/neu.962 (9-mer)) [HER2/neu peptide, position 962, 9 amino acids]: the relative binding ratio was -0.0002 ratio (IC50 standard / IC50 test).

Another experiment deals with HLA-A*1101 (purified HLA class I molecule) (human). Described as above.
On to CSPMCKGSR (also called Her2/neu.195 (9-mer)) [HER2/neu peptide, position 195, 9 amino acids], for which the relative binding ratio is -0.0001 ratio (IC50 standard / IC50 test).

GMEHLREVR (also called Her2/neu.346 (9-mer)) [HER2/neu peptide, position 346, 9 amino acids]: the relative binding ratio was -0.0002 ratio (IC50 standard / IC50 test).

Take CAGGCARCK (also called Her2/neu.220 (9-mer)) [HER2/neu peptide, position 220, 9 amino acids]: the relative binding ratio was -0.0002 ratio (IC50 standard / IC50 test).

Turning to DSECRPRFR (also called Her2/neu.962 (9-mer)) [HER2/neu peptide, position 962, 9 amino acids], the relative binding ratio is -0.0002 ratio (IC50 standard / IC50 test).

The next experiment addresses HLA-DR7 (DRB1*0701), purified HLA class II molecule (human). Briefly: competition with 125I-labelled probe peptide, purified HLA-DR.
Consider VVGILLVVVLGVVFG (also called Her2/neu.658) [HER2/neu DR supermotif exemplary 15-mer VVGILLVVVLGVVFG (position 658)], for which the relative binding ratio is -0.0013 ratio (IC50 standard / IC50 test).

For VCPLHNQEVTAEDGT (also called Her2/neu.314) [HER2/neu DR supermotif exemplary 15-mer VCPLHNQEVTAEDGT (position 314)], the relative binding ratio was -0.0013 ratio (IC50 standard / IC50 test).

Take TQLFEDNYALAVLDN (also called Her2/neu.105) [HER2/neu DR supermotif exemplary 15-mer TQLFEDNYALAVLDN (position 105)]: the relative binding ratio was 0.016 ratio (IC50 standard / IC50 test).

In the case of VEPLTPSGAMPNQAQ (also called Her2/neu.697) [HER2/neu DR supermotif exemplary 15-mer VEPLTPSGAMPNQAQ (position 697)], the relative binding ratio is -0.0011 ratio (IC50 standard / IC50 test).

The next experiment deals with HLA-DR1 (DRB1*0101), purified HLA class II molecule (human). Described as above.
In the case of VVGILLVVVLGVVFG (also called Her2/neu.658) [HER2/neu DR supermotif exemplary 15-mer VVGILLVVVLGVVFG (position 658)], the relative binding ratio is -0.0004 ratio (IC50 standard / IC50 test).

VCPLHNQEVTAEDGT (also called Her2/neu.314) [HER2/neu DR supermotif exemplary 15-mer VCPLHNQEVTAEDGT (position 314)]: the relative binding ratio is -0.0004 ratio (IC50 standard / IC50 test).

As to QPDVRPQPPSPREGP (also called Her2/neu.1142) [HER2/neu DR supermotif exemplary 15-mer QPDVRPQPPSPREGP (position 1142)], the relative binding ratio was 0.0007 ratio (IC50 standard / IC50 test).

Consider TQLFEDNYALAVLDN (also called Her2/neu.105) [HER2/neu DR supermotif exemplary 15-mer TQLFEDNYALAVLDN (position 105)], for which the relative binding ratio is 0.053 ratio (IC50 standard / IC50 test).

Regarding VEPLTPSGAMPNQAQ (also called Her2/neu.697) [HER2/neu DR supermotif exemplary 15-mer VEPLTPSGAMPNQAQ (position 697)], the relative binding ratio is -0.0008 ratio (IC50 standard / IC50 test).

The next experiment deals with HLA-DR4w4 (DRB1*0401), purified HLA class II molecule (human). The description is as above.
Take VVGILLVVVLGVVFG (also called Her2/neu.658) [HER2/neu DR supermotif exemplary 15-mer VVGILLVVVLGVVFG (position 658)]: the relative binding ratio was -0.0025 ratio (IC50 standard / IC50 test).

On to VCPLHNQEVTAEDGT (also called Her2/neu.314) [HER2/neu DR supermotif exemplary 15-mer VCPLHNQEVTAEDGT (position 314)], for which the relative binding ratio was -0.0025 ratio (IC50 standard / IC50 test).

Regarding TQLFEDNYALAVLDN (also called Her2/neu.105) [HER2/neu DR supermotif exemplary 15-mer TQLFEDNYALAVLDN (position 105)], the relative binding ratio was -0.0025 ratio (IC50 standard / IC50 test).

Take VEPLTPSGAMPNQAQ (also called Her2/neu.697) [HER2/neu DR supermotif exemplary 15-mer VEPLTPSGAMPNQAQ (position 697)]: the relative binding ratio was -0.0025 ratio (IC50 standard / IC50 test).

In another experiment the target is T6, HLA-DR7 (DRB1*0701) (human).
T6 construct: Purified HLA class II molecule
In words: competition with 125I-labelled probe peptide on purified HLA-DR, gel filtration; IC50 of standard peptide / IC50 of test peptide.
In the case of GTDMKLRLPASPETH (also called Her2/neu.28) [HER2/neu peptide GTDMKLRLPASPETH (position 28)], the relative binding ratio was -0.0013 ratio.

As to ETELVEPLTPSGAMP (also called Her2/neu.693) [HER2/neu peptide ETELVEPLTPSGAMP (position 693)], the relative binding ratio is -0.0013 ratio.

For the molecule IKVLRENTSPKANKE (also called Her2/neu.752) [HER2/neu peptide IKVLRENTSPKANKE (position 752)], the relative binding ratio is -0.0011 ratio.

In the case of DMKLRLPASPETHLD (also called Her2/neu.30) [HER2/neu peptide DMKLRLPASPETHLD (position 30)], the relative binding ratio is -0.0013 ratio.

In a further experiment the target is T7, HLA-DR4w4 (DRB1*0401) (human).
T7 construct: Purified HLA class II molecule
The description is as above.
With GTDMKLRLPASPETH (also called Her2/neu.28) [HER2/neu peptide GTDMKLRLPASPETH (position 28)], the relative binding ratio was -0.0025 ratio.

Turning to ETELVEPLTPSGAMP (also called Her2/neu.693) [HER2/neu peptide ETELVEPLTPSGAMP (position 693)], the relative binding ratio was -0.0025 ratio.

Regarding IKVLRENTSPKANKE (also called Her2/neu.752) [HER2/neu peptide IKVLRENTSPKANKE (position 752)], the relative binding ratio is -0.0032 ratio.

Consider DMKLRLPASPETHLD (also called Her2/neu.30) [HER2/neu peptide DMKLRLPASPETHLD (position 30)], for which the relative binding ratio is -0.0025 ratio.

The target of another experiment is HLA-DR1 (DRB1*0101) (human). The experiment is described as above.
Take GTDMKLRLPASPETH (also called Her2/neu.28) [HER2/neu peptide GTDMKLRLPASPETH (position 28)]: the relative binding ratio came out at 0.001 ratio.

For the molecule ETELVEPLTPSGAMP (also called Her2/neu.693) [HER2/neu peptide ETELVEPLTPSGAMP (position 693)], the relative binding ratio turned out to be 0.006 ratio.

On to IKVLRENTSPKANKE (also called Her2/neu.752) [HER2/neu peptide IKVLRENTSPKANKE (position 752)], for which the relative binding ratio is -0.0005 ratio.

With DMKLRLPASPETHLD (also called Her2/neu.30) [HER2/neu peptide DMKLRLPASPETHLD (position 30)], the relative binding ratio came out at 0.001 ratio.
